According to patent US20140087995A1 (published 2014):
Numbered stars: 1 amine (or outer) side, 2 acyl side, 3 side chain; on linkers, the order of the positions; unused ones are H or OH. Bridge positions count the residues as written; N and C are the ends. Side chains are listed from the residue outwards. Ends that are not written are not given here. * marks the point of attachment. C20 diacid = O=C(O)CCCCCCCCCCCCCCCCCCC(=O)*; γGlu = O=C(O)[C@H](CCC(=O)[*:2])N[*:1]

T1: human amylin receptor (amylin 3(a) receptor: human calcitonin receptor co-expressed with RAMP-3) (human, UniProt P30988 25-474; O60896 24-148, limits assumed)
T1 sequence (looked up) 1: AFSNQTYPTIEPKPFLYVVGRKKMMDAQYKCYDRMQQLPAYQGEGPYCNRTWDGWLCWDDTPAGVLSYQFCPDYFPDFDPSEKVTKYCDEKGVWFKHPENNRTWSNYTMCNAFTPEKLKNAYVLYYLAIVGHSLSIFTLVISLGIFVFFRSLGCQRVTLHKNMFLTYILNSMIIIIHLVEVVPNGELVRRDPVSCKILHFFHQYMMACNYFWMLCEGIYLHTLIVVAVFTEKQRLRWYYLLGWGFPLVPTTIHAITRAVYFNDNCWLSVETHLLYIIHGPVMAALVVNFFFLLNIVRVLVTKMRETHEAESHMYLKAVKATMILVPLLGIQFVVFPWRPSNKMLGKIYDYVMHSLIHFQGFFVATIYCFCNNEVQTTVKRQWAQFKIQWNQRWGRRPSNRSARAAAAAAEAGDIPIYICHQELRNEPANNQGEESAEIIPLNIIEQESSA
T1 sequence (looked up) 2: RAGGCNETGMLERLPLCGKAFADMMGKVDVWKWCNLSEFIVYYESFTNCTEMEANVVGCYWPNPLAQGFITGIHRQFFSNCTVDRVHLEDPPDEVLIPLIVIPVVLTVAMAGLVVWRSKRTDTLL

T2: human calcitonin receptor (human, UniProt P30988 25-474)
T2 sequence (looked up): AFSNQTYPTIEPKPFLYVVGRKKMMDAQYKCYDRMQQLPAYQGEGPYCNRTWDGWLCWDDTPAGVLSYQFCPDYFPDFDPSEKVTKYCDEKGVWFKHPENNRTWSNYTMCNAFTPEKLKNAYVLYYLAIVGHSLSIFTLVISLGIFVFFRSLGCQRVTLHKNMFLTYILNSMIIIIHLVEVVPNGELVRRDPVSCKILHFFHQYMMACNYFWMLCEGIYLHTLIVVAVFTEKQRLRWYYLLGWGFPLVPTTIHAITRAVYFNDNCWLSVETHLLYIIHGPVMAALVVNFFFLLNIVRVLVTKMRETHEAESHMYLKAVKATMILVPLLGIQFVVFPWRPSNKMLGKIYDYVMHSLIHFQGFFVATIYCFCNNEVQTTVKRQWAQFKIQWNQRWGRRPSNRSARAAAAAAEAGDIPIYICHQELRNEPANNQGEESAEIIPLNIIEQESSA

B1: N^ε1-[(4S)-4-carboxy-4-(19-carboxynonadecanoylamino)butanoyl]-[His14,Arg17,Pro21,Pro27]-h-amylin (peptide)
peptide: K([γGlu-C20 diacid])CNTATCATQRLAHFLRHSSPNFGAIPSSTNVGSNTY-NH2
modifications: disulfide 2-7; N-terminus assumed
SMILES: CC[C@H](C)[C@H](NC(=O)[C@H](C)NC(=O)CNC(=O)[C@H](Cc1ccccc1)NC(=O)[C@H](CC(N)=O)NC(=O)[C@@H]1CCCN1C(=O)[C@H](CO)NC(=O)[C@H](CO)NC(=O)[C@H](Cc1c[nH]cn1)NC(=O)[C@H](CCCNC(=N)N)NC(=O)[C@H](CC(C)C)NC(=O)[C@H](Cc1ccccc1)NC(=O)[C@H](Cc1c[nH]cn1)NC(=O)[C@H](C)NC(=O)[C@H](CC(C)C)NC(=O)[C@H](CCCNC(=N)N)NC(=O)[C@H](CCC(N)=O)NC(=O)[C@@H](NC(=O)[C@H](C)NC(=O)[C@@H]1CSSC[C@H](NC(=O)[C@@H](N)CCCCNC(=O)CC[C@H](NC(=O)CCCCCCCCCCCCCCCCCCC(=O)O)C(=O)O)C(=O)N[C@@H](CC(N)=O)C(=O)N[C@@H]([C@@H](C)O)C(=O)N[C@@H](C)C(=O)N[C@@H]([C@@H](C)O)C(=O)N1)[C@@H](C)O)C(=O)N1CCC[C@H]1C(=O)N[C@@H](CO)C(=O)N[C@@H](CO)C(=O)N[C@H](C(=O)N[C@@H](CC(N)=O)C(=O)N[C@H](C(=O)NCC(=O)N[C@@H](CO)C(=O)N[C@@H](CC(N)=O)C(=O)N[C@H](C(=O)N[C@@H](Cc1ccc(O)cc1)C(N)=O)[C@@H](C)O)C(C)C)[C@@H](C)O
notes: also called compound 70
B2: N^ε1-[(4S)-4-carboxy-4-(19-carboxynonadecanoylamino)butanoyl]-[His14,Arg17,Pro21,Pro27,Pro31]-h-amylin (peptide)
peptide: K([γGlu-C20 diacid])CNTATCATQRLAHFLRHSSPNFGAIPSSTPVGSNTY-NH2
modifications: disulfide 2-7; N-terminus assumed
SMILES: CC[C@H](C)[C@H](NC(=O)[C@H](C)NC(=O)CNC(=O)[C@H](Cc1ccccc1)NC(=O)[C@H](CC(N)=O)NC(=O)[C@@H]1CCCN1C(=O)[C@H](CO)NC(=O)[C@H](CO)NC(=O)[C@H](Cc1c[nH]cn1)NC(=O)[C@H](CCCNC(=N)N)NC(=O)[C@H](CC(C)C)NC(=O)[C@H](Cc1ccccc1)NC(=O)[C@H](Cc1c[nH]cn1)NC(=O)[C@H](C)NC(=O)[C@H](CC(C)C)NC(=O)[C@H](CCCNC(=N)N)NC(=O)[C@H](CCC(N)=O)NC(=O)[C@@H](NC(=O)[C@H](C)NC(=O)[C@@H]1CSSC[C@H](NC(=O)[C@@H](N)CCCCNC(=O)CC[C@H](NC(=O)CCCCCCCCCCCCCCCCCCC(=O)O)C(=O)O)C(=O)N[C@@H](CC(N)=O)C(=O)N[C@@H]([C@@H](C)O)C(=O)N[C@@H](C)C(=O)N[C@@H]([C@@H](C)O)C(=O)N1)[C@@H](C)O)C(=O)N1CCC[C@H]1C(=O)N[C@@H](CO)C(=O)N[C@@H](CO)C(=O)N[C@H](C(=O)N1CCC[C@H]1C(=O)N[C@H](C(=O)NCC(=O)N[C@@H](CO)C(=O)N[C@@H](CC(N)=O)C(=O)N[C@H](C(=O)N[C@@H](Cc1ccc(O)cc1)C(N)=O)[C@@H](C)O)C(C)C)[C@@H](C)O
notes: also called compound 62
B3: N^ε1-[(4S)-4-carboxy-4-[[(4S)-4-carboxy-4-(19-carboxynonadecanoylamino)butanoyl]amino]butanoyl]-[Glu14,Arg17,Pro21,Pro27,Arg34]-h-amylin (peptide)
peptide: K([γGlu-γGlu-C20 diacid])CNTATCATQRLAEFLRHSSPNFGAIPSSTNVGRNTY-NH2
modifications: disulfide 2-7; N-terminus assumed
SMILES: CC[C@H](C)[C@H](NC(=O)[C@H](C)NC(=O)CNC(=O)[C@H](Cc1ccccc1)NC(=O)[C@H](CC(N)=O)NC(=O)[C@@H]1CCCN1C(=O)[C@H](CO)NC(=O)[C@H](CO)NC(=O)[C@H](Cc1c[nH]cn1)NC(=O)[C@H](CCCNC(=N)N)NC(=O)[C@H](CC(C)C)NC(=O)[C@H](Cc1ccccc1)NC(=O)[C@H](CCC(=O)O)NC(=O)[C@H](C)NC(=O)[C@H](CC(C)C)NC(=O)[C@H](CCCNC(=N)N)NC(=O)[C@H](CCC(N)=O)NC(=O)[C@@H](NC(=O)[C@H](C)NC(=O)[C@@H]1CSSC[C@H](NC(=O)[C@@H](N)CCCCNC(=O)CC[C@H](NC(=O)CC[C@H](NC(=O)CCCCCCCCCCCCCCCCCCC(=O)O)C(=O)O)C(=O)O)C(=O)N[C@@H](CC(N)=O)C(=O)N[C@@H]([C@@H](C)O)C(=O)N[C@@H](C)C(=O)N[C@@H]([C@@H](C)O)C(=O)N1)[C@@H](C)O)C(=O)N1CCC[C@H]1C(=O)N[C@@H](CO)C(=O)N[C@@H](CO)C(=O)N[C@H](C(=O)N[C@@H](CC(N)=O)C(=O)N[C@H](C(=O)NCC(=O)N[C@@H](CCCNC(=N)N)C(=O)N[C@@H](CC(N)=O)C(=O)N[C@H](C(=O)N[C@@H](Cc1ccc(O)cc1)C(N)=O)[C@@H](C)O)C(C)C)[C@@H](C)O
notes: also called compound 88
B4: N^ε1-[(4S)-4-carboxy-4-[[(4S)-4-carboxy-4-(19-carboxynonadecanoylamino)butanoyl]amino]butanoyl]-[Arg17,Pro21,Pro27,His34]-h-amylin (peptide)
peptide: K([γGlu-γGlu-C20 diacid])CNTATCATQRLANFLRHSSPNFGAIPSSTNVGHNTY-NH2
modifications: disulfide 2-7; N-terminus assumed
SMILES: CC[C@H](C)[C@H](NC(=O)[C@H](C)NC(=O)CNC(=O)[C@H](Cc1ccccc1)NC(=O)[C@H](CC(N)=O)NC(=O)[C@@H]1CCCN1C(=O)[C@H](CO)NC(=O)[C@H](CO)NC(=O)[C@H](Cc1c[nH]cn1)NC(=O)[C@H](CCCNC(=N)N)NC(=O)[C@H](CC(C)C)NC(=O)[C@H](Cc1ccccc1)NC(=O)[C@H](CC(N)=O)NC(=O)[C@H](C)NC(=O)[C@H](CC(C)C)NC(=O)[C@H](CCCNC(=N)N)NC(=O)[C@H](CCC(N)=O)NC(=O)[C@@H](NC(=O)[C@H](C)NC(=O)[C@@H]1CSSC[C@H](NC(=O)[C@@H](N)CCCCNC(=O)CC[C@H](NC(=O)CC[C@H](NC(=O)CCCCCCCCCCCCCCCCCCC(=O)O)C(=O)O)C(=O)O)C(=O)N[C@@H](CC(N)=O)C(=O)N[C@@H]([C@@H](C)O)C(=O)N[C@@H](C)C(=O)N[C@@H]([C@@H](C)O)C(=O)N1)[C@@H](C)O)C(=O)N1CCC[C@H]1C(=O)N[C@@H](CO)C(=O)N[C@@H](CO)C(=O)N[C@H](C(=O)N[C@@H](CC(N)=O)C(=O)N[C@H](C(=O)NCC(=O)N[C@@H](Cc1c[nH]cn1)C(=O)N[C@@H](CC(N)=O)C(=O)N[C@H](C(=O)N[C@@H](Cc1ccc(O)cc1)C(N)=O)[C@@H](C)O)C(C)C)[C@@H](C)O
notes: also called compound 86
B5: N^ε21-[(4S)-4-carboxy-4-[[(4S)-4-carboxy-4-(19-carboxynonadecanoylamino)butanoyl]amino]butanoyl]-[Asp14,Arg17,Lys21,Pro27,Asp35]-h-amylin (peptide)
peptide: KCNTATCATQRLADFLRHSSK([γGlu-γGlu-C20 diacid])NFGAIPSSTNVGSDTY-NH2
modifications: disulfide 2-7; N-terminus assumed
SMILES: CC[C@H](C)[C@H](NC(=O)[C@H](C)NC(=O)CNC(=O)[C@H](Cc1ccccc1)NC(=O)[C@H](CC(N)=O)NC(=O)[C@H](CCCCNC(=O)CC[C@H](NC(=O)CC[C@H](NC(=O)CCCCCCCCCCCCCCCCCCC(=O)O)C(=O)O)C(=O)O)NC(=O)[C@H](CO)NC(=O)[C@H](CO)NC(=O)[C@H](Cc1c[nH]cn1)NC(=O)[C@H](CCCNC(=N)N)NC(=O)[C@H](CC(C)C)NC(=O)[C@H](Cc1ccccc1)NC(=O)[C@H](CC(=O)O)NC(=O)[C@H](C)NC(=O)[C@H](CC(C)C)NC(=O)[C@H](CCCNC(=N)N)NC(=O)[C@H](CCC(N)=O)NC(=O)[C@@H](NC(=O)[C@H](C)NC(=O)[C@@H]1CSSC[C@H](NC(=O)[C@@H](N)CCCCN)C(=O)N[C@@H](CC(N)=O)C(=O)N[C@@H]([C@@H](C)O)C(=O)N[C@@H](C)C(=O)N[C@@H]([C@@H](C)O)C(=O)N1)[C@@H](C)O)C(=O)N1CCC[C@H]1C(=O)N[C@@H](CO)C(=O)N[C@@H](CO)C(=O)N[C@H](C(=O)N[C@@H](CC(N)=O)C(=O)N[C@H](C(=O)NCC(=O)N[C@@H](CO)C(=O)N[C@@H](CC(=O)O)C(=O)N[C@H](C(=O)N[C@@H](Cc1ccc(O)cc1)C(N)=O)[C@@H](C)O)C(C)C)[C@@H](C)O
notes: also called compound 59
B6: N^ε1-[(4S)-4-carboxy-4-[[(4S)-4-carboxy-4-(19-carboxynonadecanoylamino)butanoyl]amino]butanoyl]-[Glu14,Arg17,Pro21,Pro27,Arg35]-h-amylin (peptide)
peptide: K([γGlu-γGlu-C20 diacid])CNTATCATQRLAEFLRHSSPNFGAIPSSTNVGSRTY-NH2
modifications: disulfide 2-7; N-terminus assumed
SMILES: CC[C@H](C)[C@H](NC(=O)[C@H](C)NC(=O)CNC(=O)[C@H](Cc1ccccc1)NC(=O)[C@H](CC(N)=O)NC(=O)[C@@H]1CCCN1C(=O)[C@H](CO)NC(=O)[C@H](CO)NC(=O)[C@H](Cc1c[nH]cn1)NC(=O)[C@H](CCCNC(=N)N)NC(=O)[C@H](CC(C)C)NC(=O)[C@H](Cc1ccccc1)NC(=O)[C@H](CCC(=O)O)NC(=O)[C@H](C)NC(=O)[C@H](CC(C)C)NC(=O)[C@H](CCCNC(=N)N)NC(=O)[C@H](CCC(N)=O)NC(=O)[C@@H](NC(=O)[C@H](C)NC(=O)[C@@H]1CSSC[C@H](NC(=O)[C@@H](N)CCCCNC(=O)CC[C@H](NC(=O)CC[C@H](NC(=O)CCCCCCCCCCCCCCCCCCC(=O)O)C(=O)O)C(=O)O)C(=O)N[C@@H](CC(N)=O)C(=O)N[C@@H]([C@@H](C)O)C(=O)N[C@@H](C)C(=O)N[C@@H]([C@@H](C)O)C(=O)N1)[C@@H](C)O)C(=O)N1CCC[C@H]1C(=O)N[C@@H](CO)C(=O)N[C@@H](CO)C(=O)N[C@H](C(=O)N[C@@H](CC(N)=O)C(=O)N[C@H](C(=O)NCC(=O)N[C@@H](CO)C(=O)N[C@@H](CCCNC(=N)N)C(=O)N[C@H](C(=O)N[C@@H](Cc1ccc(O)cc1)C(N)=O)[C@@H](C)O)C(C)C)[C@@H](C)O
notes: also called compound 89

Tests used:
[1] = target: T1, human amylin receptor (amylin 3(a) …); assay: cell-based or functional assay
[2] = target: T2, human calcitonin receptor; assay: cell-based or functional assay

Binder | hAmylin-R funct. EC50 [1] [nM] | hCTR funct. EC50 [2] [nM] | Ratio hCT/hAmylin funct. [1]
B1 | 0.04 | 0.715 | –
B2 | 0.044 | 0.539 | –
B3 | 0.773 | 6.55 | 8.5
B4 | 0.298 | 19.2 | 64.4
B5 | 0.389 | 1.95 | –
B6 | 0.404 | 11.2 | 27.8
